According to paper PMC4066437, “Oxidation of cellular amino acid pools leads to cytotoxic mistranslation of the genetic code” (eLife, 2014):

B1: ScctPheRS (Saccharomyces cerevisiae cytoplasmic PheRS; Yeast ct) (Saccharomyces cerevisiae S288C) (protein)
chain: SDFQLEILKKLDELDEIKSTLATFPQHGSQDVLSALNSLKAHNKLEFSKVDTVTYDLTKEGAQILNEGSYEIKLVKLIQELGQLQIKDVMSKLGPQVGKVGQARAFKNGWIAKNASNELELSAKLQNTDLNELTDETQSILAQIKNNSHLDSIDAKILNDLKKRKLIAQGKITDFNVTKGPEFSTDLTKLETDLTSDMVSTNAYKDLKFKPYNFNSQGVQISSGALHPLNKVREEFRQIFFSMGFTEMPSNQYVETGFWNFDALYVPQQHPARDLQDTFYIKDPLTADLPDDKTYMDNIKAVHEQGRFGSIGYRYNWKPEECQKLVLRTHSTAISARMLHDLAKDPKPTRLFSIDRVFRNEAVDATHLAEFHQVEGVLADYNITLGDLIKFMEEFFERMGVTGLRFKPTYNPYTEPSMEIFSWHEGLQKWVEIGNSGMFRPEMLESMGLPKDLRVLGWGLSLERPTMIKYKVQNIRELLGHKVSLDFIETNPAARLDEDLYE
notes: His-tagged purified cytoplasmic enzyme; (alpha beta)2 heterotetramer; with Phenylalanine--tRNA ligase beta subunit
B2: EcPheRS (E. coli phenylalanine-tRNA synthetase) (Escherichia coli K-12) (protein)
chain: MSHLAELVASAKAAISQASDVAALDNVRVEYLGKKGHLTLQMTTLRELPPEERPAAGAVINEAKEQVQQALNARKAELESAALNARLAAETIDVSLPGRRIENGGLHPVTRTIDRIESFFGELGFTVATGPEIEDDYHNFDALNIPGHHPARADHDTFWFDTTRLLRTQTSGVQIRTMKAQQPPIRIIAPGRVYRNDYDQTHTPMFHQMEGLIVDTNISFTNLKGTLHDFLRNFFEEDLQIRFRPSYFPFTEPSAEVDVMGKNGKWLEVLGCGMVHPNVLRNVGIDPEVYSGFAFGMGMERLTMLRYGVTDLRSFFENDLRFLKQFK
notes: His-tagged, from plasmid pQE31-EcFRS (pheS and pheT), dialysed against PPi; (alpha beta)2 heterotetramer; with Phenylalanine--tRNA ligase beta subunit

Columns and labels:
Experiment in all cases: ATP/PPi exchange (amino acid activation)
[1] = substrate: N[C@@H](Cc1ccccc1)C(=O)O; format: biochemical, Saccharomyces cerevisiae; details: 2 mM ATP, 2 mM [32P]PPi, 10 mM MgCl2, pH 7.2, 37 °C, stereochemistry of Phe not given
Excerpt: (§1) ATP/PPi exchange (amino acid activation) on ScctPheRS (Saccharomyces cerevisiae cytoplasmic PheRS; Yeast ct)

[2] = substrate: NC(Cc1cccc(O)c1)C(=O)O; format: biochemical, Saccharomyces cerevisiae; details: 2 mM ATP, 2 mM [32P]PPi, 10 mM MgCl2, pH 7.2, 37 °C, D,L-m-Tyr varied 20-2000 µM
Excerpt: as §1

[3] = substrate: N[C@@H](Cc1ccccc1)C(=O)O; format: biochemical, Escherichia coli; details: 2 mM ATP, 2 mM [32P]PPi, 10 mM MgCl2, pH 7.2, 37 °C, stereochemistry of Phe not given
Excerpt: (§2) ATP/PPi exchange (amino acid activation) on EcPheRS (E. coli phenylalanine-tRNA synthetase)

[4] = substrate: NC(Cc1cccc(O)c1)C(=O)O; format: biochemical, Escherichia coli; details: 2 mM ATP, 2 mM [32P]PPi, 10 mM MgCl2, pH 7.2, 37 °C, D,L-m-Tyr varied 20-2000 µM
Excerpt: as §2

| Protein | Km [1] | kcat [1] | kcat/Km [1] | Km [2] | kcat [2] | kcat/Km [2] | Km [3] | kcat [3] | kcat/Km [3] | Km [4] | kcat [4] | kcat/Km [4] |
| --- | --- | --- | --- | --- | --- | --- | --- | --- | --- | --- | --- | --- |
| B1 | 16 ± 2 µM | 26 ± 4 s⁻¹ | 1.6e+06 M⁻¹ s⁻¹ | 1150 ± 230 µM | 26 ± 4 s⁻¹ | 23000 M⁻¹ s⁻¹ | – | – | – | – | – | – |
| B2 | – | – | – | – | – | – | 18 ± 4 µM | 5.2 ± 2 s⁻¹ | 290000 M⁻¹ s⁻¹ | 247 ± 60 µM | 2.1 ± 0.8 s⁻¹ | 8000 M⁻¹ s⁻¹ |
